# From patent US11946041B2, “Modification of polypeptides” (BicycleRD Limited, priority 2017, dated 2024)
# Assays:
# EphA3 = target: T1, EphA3 (Homo sapiens, UniProt P29320); assay: EphA3 FP competition assay with 67-10-05 as labelled tracer; format: binding; details: tracer 67-10-05
# T1 construct: So far all selections have been performed with soluble EphA3 ecto domain
# T1 sequence (P29320 21-541 limits assumed): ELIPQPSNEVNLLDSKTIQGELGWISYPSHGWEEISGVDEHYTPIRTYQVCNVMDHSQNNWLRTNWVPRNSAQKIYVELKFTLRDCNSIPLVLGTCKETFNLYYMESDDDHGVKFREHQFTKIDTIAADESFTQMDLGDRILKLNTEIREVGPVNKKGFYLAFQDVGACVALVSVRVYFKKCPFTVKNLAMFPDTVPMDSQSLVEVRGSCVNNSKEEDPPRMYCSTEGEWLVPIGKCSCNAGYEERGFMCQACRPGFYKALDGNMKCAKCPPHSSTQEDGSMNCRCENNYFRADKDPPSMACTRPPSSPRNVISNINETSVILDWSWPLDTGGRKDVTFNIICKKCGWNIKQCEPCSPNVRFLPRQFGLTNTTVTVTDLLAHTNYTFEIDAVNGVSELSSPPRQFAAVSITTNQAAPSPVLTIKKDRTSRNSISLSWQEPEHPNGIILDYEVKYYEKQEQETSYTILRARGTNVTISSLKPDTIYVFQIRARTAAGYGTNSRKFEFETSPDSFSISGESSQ
# CCR4 [1] = target: T2, CCR4 (Homo sapiens, UniProt P51679); assay: PathHunter eXpress CCR4 CHO-K1 β-Arrestin GPCR Assay, agonist format; format: cell-based
# T2 construct: host or cells: CHO-K1
# T2 sequence (P51679 1-360): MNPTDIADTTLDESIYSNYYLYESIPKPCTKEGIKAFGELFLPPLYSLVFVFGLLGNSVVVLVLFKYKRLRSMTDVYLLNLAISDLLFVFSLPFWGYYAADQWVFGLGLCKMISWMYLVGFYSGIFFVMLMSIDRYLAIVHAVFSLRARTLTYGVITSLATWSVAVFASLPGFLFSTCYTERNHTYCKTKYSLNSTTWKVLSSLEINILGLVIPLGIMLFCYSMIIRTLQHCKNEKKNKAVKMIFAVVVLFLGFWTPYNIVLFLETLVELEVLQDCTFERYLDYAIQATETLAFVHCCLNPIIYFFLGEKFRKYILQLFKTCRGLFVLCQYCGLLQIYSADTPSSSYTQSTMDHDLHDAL
# Description: (§1) The aim of the present experiment was to analyze if if these peptides are functional using a Discoverx Assay, the Beta-Arrestin recruitment assay, to identify agonism or antagonism in the selected peptides.
# (§2) Standard protocols used: • PathHunter® eXpress CCR4 CHO-K1 β-Arrestin GPCR Assay. 100 dp (1×96-well)
# (§3) The experiment was carried using the manufacturer instructions.
# The concentration was increased to test for response at high concentration.
# CCR4 [2] = target: T2, CCR4; assay: PathHunter eXpress CCR4 CHO-K1 β-Arrestin GPCR Assay, antagonist format with CCL22; format: cell-based
# Description: as §1, §2, §3
# We therefore used the assay in an antagonist format, using 10 nM CCL22.
# We repeated this experiment lowering the concentration of CCL22 from 10 nM to 1 nM to show a full inhibition curve.
sequence,measurement,setting,value
"CIPDPYQCVILRQPC [67-10-05-N005, EphA3 peptide ligand, 6X6 loops, from soluble selection; used as labelled tracer]",Ki,EphA3,5.39 nM
"ACLSCARHGNQCA [24-12-00-N001, bicyclic peptide ligand, TATA scaffold, from CCR4 cell-based selection]",Raw Data,CCR4 [1]; 0.006 nM,31416
same,Raw Data,CCR4 [1]; 0.02 nM,30201
same,Raw Data,CCR4 [1]; 0.06 nM,30311
same,Raw Data,CCR4 [1]; 0.17 nM,27668
same,Raw Data,CCR4 [1]; 0.51 nM,34202
same,Raw Data,CCR4 [1]; 1.5 nM,31584
same,Raw Data,CCR4 [1]; 4.6 nM,28872
same,Raw Data,CCR4 [1]; 13.9 nM,27830
same,Raw Data,CCR4 [1]; 41.7 nM,26640
same,Raw Data,CCR4 [1]; 125 nM,25288
same,Raw Data,CCR4 [1]; 375 nM,22486
same,Raw Data,"CCR4 [1]; high concentration, 0.001 uM",10679
same,Raw Data,"CCR4 [1]; high concentration, 0.003 uM",11299
same,Raw Data,"CCR4 [1]; high concentration, 0.008 uM",11106
same,Raw Data,"CCR4 [1]; high concentration, 0.023 uM",12540
same,Raw Data,"CCR4 [1]; high concentration, 0.1 uM",13063
same,Raw Data,"CCR4 [1]; high concentration, 0.2 uM",13783
same,Raw Data,"CCR4 [1]; high concentration, 0.6 uM",13041
same,Raw Data,"CCR4 [1]; high concentration, 1.9 uM",13661
same,Raw Data,"CCR4 [1]; high concentration, 5.6 uM",12922
same,Raw Data,"CCR4 [1]; high concentration, 16.7 uM",12407
same,Raw Data,"CCR4 [1]; high concentration, 50 uM",12457
same,Raw Data,"CCR4 [2]; 1 nM CCL22, 0.001 uM",205771
same,Raw Data,"CCR4 [2]; 1 nM CCL22, 0.003 uM",230925
same,Raw Data,"CCR4 [2]; 1 nM CCL22, 0.008 uM",216507
same,Raw Data,"CCR4 [2]; 1 nM CCL22, 0.023 uM",200429
same,Raw Data,"CCR4 [2]; 1 nM CCL22, 0.1 uM",190863
same,Raw Data,"CCR4 [2]; 1 nM CCL22, 0.2 uM",196279
same,Raw Data,"CCR4 [2]; 1 nM CCL22, 0.6 uM",195159
same,Raw Data,"CCR4 [2]; 1 nM CCL22, 1.9 uM",184486
same,Raw Data,"CCR4 [2]; 1 nM CCL22, 5.6 uM",225342
same,Raw Data,"CCR4 [2]; 1 nM CCL22, 16.7 uM",123432
same,Raw Data,"CCR4 [2]; 1 nM CCL22, 50 uM",101311
same,Raw Data,"CCR4 [2]; 10 nM CCL22, 0.001 uM",162386
same,Raw Data,"CCR4 [2]; 10 nM CCL22, 0.003 uM",192263
same,Raw Data,"CCR4 [2]; 10 nM CCL22, 0.008 uM",193071
same,Raw Data,"CCR4 [2]; 10 nM CCL22, 0.023 uM",176223
same,Raw Data,"CCR4 [2]; 10 nM CCL22, 0.1 uM",168443
same,Raw Data,"CCR4 [2]; 10 nM CCL22, 0.2 uM",197817
same,Raw Data,"CCR4 [2]; 10 nM CCL22, 0.6 uM",207362
same,Raw Data,"CCR4 [2]; 10 nM CCL22, 1.9 uM",197426
same,Raw Data,"CCR4 [2]; 10 nM CCL22, 5.6 uM",164381
same,Raw Data,"CCR4 [2]; 10 nM CCL22, 16.7 uM",163675
same,Raw Data,"CCR4 [2]; 10 nM CCL22, 50 uM",134429
